Reference: patent US20230049752A1 (University of California, published 2023)

Experiments:
[1] = target: human Claudin-6 (CLDN6) (human) (UniProt P56747); experiment: flow cytometry, UMUC4 cells (positive cell line); 2nd Ab only 1,114.73
[2] = target: human Claudin-6 (CLDN6) (human) (UniProt P56747); experiment: KinExA, HEK293T CLDN6-mGFP A11 cells detached by Versene, equilibrium curves 500pM, 10nM; printed 95% CI 3.41nM - 14.99nM
[3] = target: human Claudin-6 (CLDN6) (human) (UniProt P56747); experiment: KinExA, HEK293T CLDN6-mGFP A11 cells detached by Versene, equilibrium curves 500pM, 10nM; printed 95% CI 0.56nM - 1.66nM
[4] = target: human Claudin-6 (CLDN6) (human) (UniProt P56747); experiment: KinExA, HEK293T CLDN6-mGFP A11 cells detached by Versene, equilibrium curves 500pM, 10nM; printed 95% CI 1.05nM - 3.38nM
[5] = target: human Claudin-6 (CLDN6) (human) (UniProt P56747); experiment: KinExA, HEK293T CLDN6-mGFP A11 cells detached by Versene, equilibrium curves 500pM, 10nM; printed 95% CI 1.49nM - 17.05nM
[6] = target: human Claudin-6 (CLDN6) (human) (UniProt P56747); experiment: FACS titration of labelled mAb on HEK293T-CLDN6-mGFP cells
[7] = target: human Claudin-6 (CLDN6) (human) (UniProt P56747); experiment: FACS titration of labelled mAb on ARK2 cells (endogenous CLDN6+)
[8] = target: CLDN3/4 (endogenous on LS513 or MCF7 cells); experiment: FACS titration of labelled mAb on MCF7 cells (endogenous CLDN3/4+)
[9] = target: CLDN3/4 (endogenous on LS513 or MCF7 cells); experiment: FACS titration of labelled mAb on LS513 cells (endogenous CLDN3/4+)
[10] = target: human Claudin-6 (CLDN6) (human) (UniProt P56747); experiment: FACS titration of labelled mAb on OVCA429 cells (endogenous CLDN6+)
[11] = target: T1, Claudin-9 (CLDN9) (human, UniProt O95484 1-217); experiment: FACS titration of labelled mAb on HEK293T CLDN9-mGFP cells
T1 construct: whole, on cells; also called CLDN9-GFP; CLDN9-mGFP
T1 sequence (looked up): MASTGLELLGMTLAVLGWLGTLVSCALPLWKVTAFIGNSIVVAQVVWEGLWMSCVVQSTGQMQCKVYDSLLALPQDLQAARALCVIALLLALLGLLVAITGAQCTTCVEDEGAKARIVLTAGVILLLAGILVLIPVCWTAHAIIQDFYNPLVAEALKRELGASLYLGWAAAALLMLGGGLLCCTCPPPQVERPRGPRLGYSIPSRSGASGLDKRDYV
Description: (§1) CLDN6 antibodies were tested from 0.32 nM to 1000 nM (serial dilution 1:5, 6 points) in a 50 μl volume with 150,000 cells system.
(§2) CLDN6-expressing cells were used in FACS assays to determine the CLDN6 antibody's ability to bind to CLDN6 on the surface of cells and to cross-react with other CLDN family members. HEK293 T cells engineered to express human CLDN6 fused to GFP, mouse CLDN6 fused to GFP, CLDN9-GFP, CLDN4-GFP, or CLDN3-GFP, or GFP alone (without CLDN6) were used as artificial models of CLDN6 expression.
(§3) For each type of cell tested and for each mAb, cells were detached from the surface of the culture flasks by EDTA (instead of trypsin) in order to protect the cell surface proteins. The detached cells were then incubated with Alexa Fluor®-labeled CLDN6 mAbs for 30 min in the dark on ice at a pre-determined concentration. […] After washing, the cells were read by a BD Accuri™ Flow Cytometer C6 to detect antibody-antigen protein binding in channel FL4H. Each antibody was tested at varied concentrations to establish a dose-fluorescence curve. […] Cross-reactivity data were obtained using a similar methodology, but with cells having a different expression profile for CLDN6, CLDN3, CLDN4 and CLDN9.

[12] = target: T2, mouse Claudin-6 (CLDN6) (mouse, UniProt Q9Z262 1-219); experiment: FACS titration of labelled mAb on HEK293T mouse CLDN6-mGFP cells
T2 construct: whole, on cells; GFP fusion on engineered HEK293T cells; also called Mouse CLDN6; murine CLDN6
T2 sequence (looked up): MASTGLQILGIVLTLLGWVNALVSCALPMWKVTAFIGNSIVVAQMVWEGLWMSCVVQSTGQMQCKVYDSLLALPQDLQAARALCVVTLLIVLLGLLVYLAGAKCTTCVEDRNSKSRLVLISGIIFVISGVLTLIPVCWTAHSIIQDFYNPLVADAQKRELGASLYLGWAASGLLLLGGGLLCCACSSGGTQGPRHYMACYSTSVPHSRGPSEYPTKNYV
Description: as §1, §2, §3

[13] = target: T3, Claudin-4 (CLDN4) (human, UniProt O14493 1-209); experiment: FACS titration of labelled mAb on HEK293T CLDN4-mGFP cells
T3 construct: whole, on cells; also called CLDN4-GFP; CLDN4-mGFP
T3 sequence (looked up): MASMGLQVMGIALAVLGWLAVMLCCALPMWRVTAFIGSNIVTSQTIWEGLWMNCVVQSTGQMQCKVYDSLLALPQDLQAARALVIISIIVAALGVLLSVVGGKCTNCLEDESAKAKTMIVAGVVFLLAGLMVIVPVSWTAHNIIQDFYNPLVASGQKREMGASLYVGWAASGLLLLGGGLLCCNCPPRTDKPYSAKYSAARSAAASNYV
Description: as §1, §2, §3

B1: CLDN6 ADC: AB3-7 conjugated to MC-VC-PAB-MMAE (conventional) (antibody, V domains shown)
VH: EVQLLESGGGLVQPGGSMRLSCAASGFTFSNYWMNWVRQAPGKGLEWVAQIRLKSDNYATHYADSVKGRFTISRDDSKNTVYLQMNSLRAEDTGVYYCNDGPPSGSWGQGTLLTVSS
VL: DIQMTQSPSSLSASVGDRVTITCRISENIYSYLAWYQQKPGKAPKLLVYNAKILVEGVPSRFSGSGSGTDFTLTISSLQPEDFGTYYCQHHYTVPWTFGQGTKLEIK
modifications: antibody conjugated to MC-VC-PAB-MMAE, heterogeneous drug load; attachment residues not stated
flow cytometry signal at 1µg Ab/Sample [1]: 28800
Kd [2]: 6.68 nM

B2: CLDN6 ADC: AB3-7 conjugated to MC-GGFG-MMAE (D4 technology) (antibody, V domains shown)
VH: EVQLLESGGGLVQPGGSMRLSCAASGFTFSNYWMNWVRQAPGKGLEWVAQIRLKSDNYATHYADSVKGRFTISRDDSKNTVYLQMNSLRAEDTGVYYCNDGPPSGSWGQGTLLTVSS
VL: DIQMTQSPSSLSASVGDRVTITCRISENIYSYLAWYQQKPGKAPKLLVYNAKILVEGVPSRFSGSGSGTDFTLTISSLQPEDFGTYYCQHHYTVPWTFGQGTKLEIK
modifications: antibody conjugated to MC-GGFG-MMAE, mostly 4 drugs per antibody; attachment residues not stated
flow cytometry signal at 0.1µg Ab/Sample [1]: 8790
flow cytometry signal at 1µg Ab/Sample [1]: 31600
Kd [3]: 1.01 nM

B3: CLDN6 ADC: AB3-7 conjugated to CL2A-SN38 (conventional) (antibody, V domains shown)
VH: EVQLLESGGGLVQPGGSMRLSCAASGFTFSNYWMNWVRQAPGKGLEWVAQIRLKSDNYATHYADSVKGRFTISRDDSKNTVYLQMNSLRAEDTGVYYCNDGPPSGSWGQGTLLTVSS
VL: DIQMTQSPSSLSASVGDRVTITCRISENIYSYLAWYQQKPGKAPKLLVYNAKILVEGVPSRFSGSGSGTDFTLTISSLQPEDFGTYYCQHHYTVPWTFGQGTKLEIK
modifications: antibody conjugated to CL2A-SN38, heterogeneous drug load; attachment residues not stated
flow cytometry signal at 0.1µg Ab/Sample [1]: 9990
flow cytometry signal at 1µg Ab/Sample [1]: 33800
Kd [4]: 1.91 nM

B4: CLDN6 ADC: AB3-7 conjugated to MC-VC-PAB-MMAE (D4 technology) (antibody, V domains shown)
VH: EVQLLESGGGLVQPGGSMRLSCAASGFTFSNYWMNWVRQAPGKGLEWVAQIRLKSDNYATHYADSVKGRFTISRDDSKNTVYLQMNSLRAEDTGVYYCNDGPPSGSWGQGTLLTVSS
VL: DIQMTQSPSSLSASVGDRVTITCRISENIYSYLAWYQQKPGKAPKLLVYNAKILVEGVPSRFSGSGSGTDFTLTISSLQPEDFGTYYCQHHYTVPWTFGQGTKLEIK
modifications: antibody conjugated to MC-VC-PAB-MMAE, mostly 4 drugs per antibody; attachment residues not stated
flow cytometry signal at 0.1µg Ab/Sample [1]: 9450
flow cytometry signal at 1µg Ab/Sample [1]: 26900
Kd [5]: 5.34 nM

B5: AB5 (antibody, V domains shown)
VH: EVQLQQSGPELVKPGASVKMSCKASGYIFTHYIMHWVKQKPGQGLEWIGCINPYNDGTKYNEKFKGKATLTSDKSSSTAYMELSSLTSEDSAVYYCARYYGYPYYSMDYWGQGTSVTVSS
VL: DVLMTQTPLSLPVSLGDQPSISCRSSQSIVHSNGNTYLDWYLQKPGQSPKLLIYKVSNRFSGVPDRFSGSGSGTDFTLKISRVEAEDLGVYYCFQGSHVPFTFGSGTRLEIK
notes: full-length IgG (ExpiCHO)
EC50 [6]: 10 nM
EC50 [7]: 8 nM
EC50 [8]: 1480 nM
EC50 [9]: 781 nM
EC50 [10]: 5 nM
EC50 [11]: 25 nM
EC50 [12]: 11 nM

B6: AB6 (antibody, V domains shown)
VH: DVQLQESGPGLVKSSQSLSLTCSVTGYSITSGYYWKWIRQFPGNKLEWMGYISYDGGINYNPSLKNRISITRDTSKNQFFLKLNSVTTEDTAKYYCARFGKGAMDYWGQGTSVTVSS
VL: AIVMFQSPSSLVVSAGEKVTMSCKSSQSLLNSRTRKNYLAWYQQKPGQSPKLLIYWASTRESGVPDRFTGSGSGTDFTLTISSVQAEDLAVYYCKQSYYLYTFGGGTKLEIK
notes: full-length IgG (ExpiCHO)
EC50 [6]: 1430 nM
EC50 [7]: 765 nM
EC50 [8]: 1140 nM
EC50 [9]: 133 nM
EC50 [10]: 394 nM
EC50 [13]: 26 nM
EC50 [11]: 2770 nM
EC50 [12]: 2220 nM

B7: AB7 (antibody, V domains shown)
VH: EVQLQQSGPELVKPGASMKISCKASGYSFTGYTMNWVKQSHGKNLEWIGLINPYNGGTNYNQKFKGKATLTVDKSSSTAYMELLSLTSEDSAVYYCARGVYDYDGFTYWGQGTLVTVSA
VL: QIVLTQSPAIMSASLGDRVTMTCTASSSVSSSYLHWYQQKPGSSPKLWIYSTSNLASGVPARFSGSGSGTSYSLTISSMEAEDAATYYCHQYHRSPPTFGSGTKLEIK
notes: full-length IgG (ExpiCHO)
EC50 [6]: 579 nM
EC50 [7]: 353 nM
EC50 [8]: 979 nM
EC50 [9]: 635 nM
EC50 [10]: 531 nM
EC50 [13]: 2090 nM
EC50 [11]: 1940 nM
EC50 [12]: 1550 nM

B8: AB8 (antibody, V domains shown)
VH: QVQLQQSGAELARPGASVKMSCKASGYTFTTYTMHWLKQRPGQGLEWIGYINPRSGYSNYNQKFKDKATLTADKSSNTAYMQLNTLTSEDSKVYYCSRGELGGFAYWGQGTLVTVSA
VL: DVVMTQTPLSLPVSLGDQASISCRSSQSLVHSDGNTYLYWYLQKPGQSPKLLIYKVSNRFSGVPDRFSGSGSGTDFTLKISRVEAEDLGVYFCSQSTHVPYTFGGGTKLEIK
notes: full-length IgG (ExpiCHO)
EC50 [6]: 1920 nM
EC50 [7]: 1140 nM
EC50 [8]: 1060 nM
EC50 [9]: 1130 nM
EC50 [10]: 1090 nM
EC50 [13]: ≥ 5000 nM
EC50 [11]: 2770 nM
EC50 [12]: ≥ 5000 nM

B9: AB11 (antibody, V domains shown)
VH: DVQLVESGGGLVQPRGSRKLSCAASGFTFSSFGMHWVRQAPEKGLEWVAYISSDSRTIYYADTVKGRFTISRDNPTNTLFLQMTSLRSEDTAMYYCARDYGRTYEAYWGQGTLVTVSA
VL: DIVLTQSPASLAVSLGQRATISCRASKSVSTSGYSYIHWYQQKPGQPPKLLIYLASNLESGVPARFSGSGSGTDFTLNIHPVEEEDAATYYCQHSRELPLTFGAGTKLELK
notes: full-length IgG (ExpiCHO)
EC50 [6]: 1700 nM
EC50 [7]: 363 nM
EC50 [8]: 427 nM
EC50 [9]: 493 nM
EC50 [10]: 835 nM
EC50 [13]: 2240 nM
EC50 [12]: 2380 nM

B10: AB12 (antibody, V domains shown)
VH: EVKLMESGGDLVKPGGSLKLSCAASGFTFSSYAMSWVRQTPEKRLEWVASIRSGGTTYYPDSVKGRFTISRDNARNILYLRMSSLRSEDTAIYYCAKVGGNPYPMDYWGQGTSVTVSS
VL: DIQMIQSPSSMFASLGDRVSLSCRASQDIGGNLDWYQQKPGGTIKLLIYSTSNLNSGVPSRFSGSGSGSDYSLTITSLESEDFADYYCLQRNAYPLTFGAGTKLELK
notes: full-length IgG (ExpiCHO)
EC50 [6]: 5000 nM
EC50 [7]: 1300 nM
EC50 [8]: 5000 nM
EC50 [9]: 2270 nM
EC50 [10]: 2290 nM
EC50 [13]: 2090 nM
EC50 [11]: 2470 nM

B11: AB15 (antibody, V domains shown)
VH: DVQLVESGGGLVQPRGSRKLSCAASGFTFSSFGMHWVRQAPEKGLEWVAYISSDSRTIYYADTVKGRFTISRDNPTNTLFLQMTSLRSEDTAMYYCARDYGRTYEAYWGQGTLVTVSA
VL: NIMMTQSPSSLAVSAGEKVTMSCKSSQSVLFSSNQKNYLAWYQQKPGQSPRLLIYWASTRESGVPDRFTGSGSGTDFTLTISNVQAEDLAVYYCHQYLSSRTFGAGTKLELK
notes: full-length IgG (ExpiCHO)
EC50 [6]: 5000 nM
EC50 [7]: 5000 nM
EC50 [8]: 5000 nM
EC50 [9]: 5000 nM
EC50 [10]: 5000 nM
EC50 [13]: ≥ 5000 nM
EC50 [12]: ≥ 5000 nM
